Data reported in FireProtDB (doi:10.1111/j.1432-1033.1996.00516.x).

B1: Guanyl-specific ribonuclease T1, P00651 (parent)
chain: MMYSKLLTLTTLLLPTALALPSLVERACDYTCGSNCYSSSDVSTAQAAGYQLHEDGETVGSNSYPHKYNNYEGFDFSVSSPYYEWPILSSGDVYSGGSPGADRVVFNENNQLAGVITHTGASGNNFVECT

Variants of: B1
Conditions: Aspergillus oryzae (strain ATCC 42149 / RIB 40); pH 5; 10 °C; GdnHCl; Fluorescence; Sodium acetate 0.1 M; reversible: yes; structure 1RN1; whole UniProt chain shown

Variant	ddG of mutation (higher = less stable) [kcal/mol]	denaturant m value [kcal/mol/M]	denaturant midpoint (higher = more stable) [M]
MMYSKLLTLTTLLLPTALALPSLVERACDYTCGSNCYSSSDVSTAQAAGYQLHEDGETVGSNSYPHKYNNYEGFDFSVSSPYYEWPILSSGDVYSGGSVGADRVVFNENNQLAGVITHTGASGNNFVECT [P99V]	-1.53	3.01	3.43

Same assay, conditions: Aspergillus oryzae (strain ATCC 42149 / RIB 40); pH 8; 10 °C; GdnHCl; Fluorescence; PIPES 0.1 M; reversible: yes; structure 1RN1; whole UniProt chain shown

Variant	ddG of mutation (higher = less stable) [kcal/mol]	denaturant m value [kcal/mol/M]	denaturant midpoint (higher = more stable) [M]
MMYSKLLTLTTLLLPTALALPSLVERACDYTCGSNCYSSSDVSTAQAAGYQLHEDGETVGSNSYPHKYNNYEGFDFSVSSPYYEWPILSSGDVYSGGSVGADRVVFNENNQLAGVITHTGASGNNFVECT [P99V]	-2.44	3.18	2.44

Same assay, conditions: Aspergillus oryzae (strain ATCC 42149 / RIB 40); pH 8; 25 °C; GdnHCl; Fluorescence; PIPES 0.1 M; reversible: yes; structure 1RN1; whole UniProt chain shown

Variant	ddG of mutation (higher = less stable) [kcal/mol]	denaturant m value [kcal/mol/M]	denaturant midpoint (higher = more stable) [M]
MMYSKLLTLTTLLLPTALALPSLVERACDYTCGSNCYSSSDVSTAQAAGYQLHEDGETVGSNSYPHKYNNYEGFDFSVSSPYYEWPILSSGDVYSGGSVGADRVVFNENNQLAGVITHTGASGNNFVECT [P99V]	-2.01	2.7	1.66
